Source: patent US20240132578A1

Tests used:
[1] = target: HIV-1 92RW020 Env (HIV-1); experiment: cell-based or functional assay
[2] = target: HIV-1 Env of isolate MGRM-AE-004 (pseudovirus) (HIV-1); experiment: cell-based or functional assay
[3] = target: HIV-1 Env of isolate MGRM-AE-005 (pseudovirus) (HIV-1); experiment: cell-based or functional assay
[4] = target: HIV-1 Env of isolate MGRM-AE-006 (pseudovirus) (HIV-1); experiment: cell-based or functional assay
[5] = target: HIV-1 JR-CSF Env T394A (HIV-1 (isolate JR-CSF)) (UniProt P20871); experiment: cell-based or functional assay
[6] = target: HIV-1 NL43 Env (HIV-1); experiment: cell-based or functional assay
[7] = target: HIV-1 envelope glycoprotein (Env) of isolate CAAN.A2, on pseudovirus (HIV-1); experiment: cell-based or functional assay
[8] = target: JR-FL gp120 ΔV1/ΔV2 (HIV-1 JR-FL); experiment: ELISA, antigen-coated wells, mAb titrated; EC50 by nonlinear regression
[9] = target: WT JR-FL gp120 (HIV-1 JR-FL); experiment: as above
[10] = target: HIV-1 Env of isolate 93IN905 (HIV-1); experiment: cell-based or functional assay
[11] = target: HIV-1 Env of isolate 93MW959 (HIV-1); experiment: cell-based or functional assay
[12] = target: HIV-1 Env of isolate 97ZA012 (HIV-1); experiment: cell-based or functional assay
[13] = target: HIV-1 Env of isolate 98IN022 (HIV-1); experiment: cell-based or functional assay
[14] = target: HIV-1 Env of isolate JRCSF (HIV-1) (UniProt P20871); experiment: cell-based or functional assay
[15] = target: HIV-1 Env of isolate MGRM-Chronic-B-010 (HIV-1); experiment: cell-based or functional assay
[16] = target: HIV-1 Env of isolate MGRM-Chronic-B-011 (HIV-1); experiment: cell-based or functional assay
[17] = target: HIV-1 Env of isolate MGRM-Chronic-B-012 (HIV-1); experiment: cell-based or functional assay
[18] = target: HIV-1 Env of isolate MGRM-Chronic-B-017 (HIV-1); experiment: cell-based or functional assay
[19] = target: HIV-1 Env of isolate MGRM-Chronic-B-018 (HIV-1); experiment: cell-based or functional assay
[20] = target: HIV-1 Env of isolate MGRM-Chronic-B-020 (HIV-1); experiment: cell-based or functional assay
[21] = target: HIV-1 Env of isolate MGRM-Chronic-B-023 (HIV-1); experiment: cell-based or functional assay
[22] = target: HIV-1 Env of isolate MGRM-Chronic-B-024 (HIV-1); experiment: cell-based or functional assay
[23] = target: HIV-1 Env of isolate NL43 (HIV-1); experiment: cell-based or functional assay
[24] = target: HIV-1 Env of isolate PVO.4 (HIV-1); experiment: cell-based or functional assay
[25] = target: HIV-1 Env of isolate QH0692.42 (HIV-1); experiment: cell-based or functional assay
[26] = target: HIV-1 Env of isolate SC422661.8 (HIV-1); experiment: cell-based or functional assay
[27] = target: HIV-1 Env of isolate SF162 (HIV-1) (UniProt P19550); experiment: cell-based or functional assay
[28] = target: HIV-1 Env of isolate THR0.18 (HIV-1); experiment: cell-based or functional assay
[29] = target: HIV-1 Env of isolate TRJ04551.58 (HIV-1); experiment: cell-based or functional assay
[30] = target: HIV-1 Env of isolate TRO.11 (HIV-1); experiment: cell-based or functional assay
[31] = target: HIV-1 Env of isolate VLGCB3 (HIV-1); experiment: cell-based or functional assay
[32] = target: HIV-1 Env of isolate MGRM-F1-018 (HIV-1); experiment: cell-based or functional assay
[33] = target: HIV-1 MGRM-AG-008 Env (pseudovirus) (HIV-1); experiment: cell-based or functional assay

Row | Substance | IC50, pseudovirus neutralization [10] | IC50, pseudovirus neutralization [11] | IC50, pseudovirus neutralization [12] | IC50, pseudovirus neutralization [13] | IC50, pseudovirus neutralization [14] | IC50, pseudovirus neutralization [15] | IC50, pseudovirus neutralization [16] | IC50, pseudovirus neutralization [17] | IC50, pseudovirus neutralization [18] | IC50, pseudovirus neutralization [19] | IC50, pseudovirus neutralization [20] | IC50, pseudovirus neutralization [21] | IC50, pseudovirus neutralization [22] | IC50, pseudovirus neutralization [23] | IC50, pseudovirus neutralization [24] | IC50, pseudovirus neutralization [25] | IC50, pseudovirus neutralization [26] | IC50, pseudovirus neutralization [27] | IC50, pseudovirus neutralization [28] | IC50, pseudovirus neutralization [29] | other results
1 | 5123_A06 (PGT-125) (antibody) |  |  |  |  |  |  |  |  |  |  |  |  |  |  |  |  |  |  |  |  | IC50, pseudovirus neutralization [1]: 0.0028 µg/mL; IC50 (µg/mL), pseudovirus neutralization [2]: > 50 µg/mL; IC50 (µg/mL), pseudovirus neutralization [3]: 0.01 µg/mL; IC50 (µg/mL), pseudovirus neutralization [4]: 0.009 µg/mL; Fold IC50 increase relative to wild-type (pseudovirus neutralization) [5]: 0.6 fold; IC50, pseudovirus neutralization [6]: > 10 µg/mL; IC50, pseudovirus neutralization [7]: 5.47 µg/mL; EC50 [8]: 0.6 µg/mL; EC50 [9]: 0.2 µg/mL
2 | 5145_B14 (PGT-127) (antibody) |  |  |  |  |  |  |  |  |  |  |  |  |  |  |  |  |  |  |  |  | IC50 (µg/mL), pseudovirus neutralization [2]: > 50 µg/mL; IC50 (µg/mL), pseudovirus neutralization [3]: > 50 µg/mL; IC50 (µg/mL), pseudovirus neutralization [4]: > 50 µg/mL; Fold IC50 increase relative to wild-type (pseudovirus neutralization) [5]: 1.6 fold; IC50, pseudovirus neutralization [7]: 0.371 µg/mL; EC50 [8]: 0.7 µg/mL; EC50 [9]: 0.1 µg/mL
3 | PGT-141 (4964_G22; 4993_K13) (antibody) | 0.001 µg/mL | 0.003 µg/mL | > 50 µg/mL | 0.001 µg/mL | 0.009 µg/mL | > 50 µg/mL | 2.24 µg/mL | > 50 µg/mL | 0.147 µg/mL | 0.572 µg/mL | > 50 µg/mL | 0.318 µg/mL | 0.011 µg/mL | > 50 µg/mL | 0.113 µg/mL | > 50 µg/mL | 1.66 µg/mL | > 50 µg/mL | 0.007 µg/mL | > 50 µg/mL | IC50, pseudovirus neutralization [30]: 0.383 µg/mL; IC50, pseudovirus neutralization [31]: > 50 µg/mL
4 | PGT-142 (4995_E20) (antibody) | 0.001 µg/mL | 0.001 µg/mL | > 50 µg/mL | 0.001 µg/mL | 0.01 µg/mL | > 50 µg/mL | 0.994 µg/mL | > 50 µg/mL | 0.076 µg/mL | 0.323 µg/mL | > 50 µg/mL | 0.486 µg/mL | 0.005 µg/mL | > 50 µg/mL | 0.066 µg/mL | > 50 µg/mL | 3.15 µg/mL | > 50 µg/mL | 0.012 µg/mL | > 50 µg/mL | IC50, pseudovirus neutralization [30]: 0.27 µg/mL; IC50, pseudovirus neutralization [31]: > 50 µg/mL
5 | PGT-143 (4980_N08) (antibody) | 0.002 µg/mL | 0.002 µg/mL | > 50 µg/mL | 0.001 µg/mL | 0.007 µg/mL | > 50 µg/mL | 1.56 µg/mL | > 50 µg/mL | 0.145 µg/mL | 0.377 µg/mL | > 50 µg/mL | 0.236 µg/mL | 0.01 µg/mL | > 50 µg/mL | 0.162 µg/mL | > 50 µg/mL | 2.02 µg/mL | > 50 µg/mL | 0.016 µg/mL | > 50 µg/mL | IC50, pseudovirus neutralization [30]: 0.219 µg/mL; IC50, pseudovirus neutralization [31]: > 50 µg/mL
6 | PGT-144 (4970_K22) (antibody) | 0.132 µg/mL | 0.332 µg/mL | > 50 µg/mL | 0.171 µg/mL | 0.149 µg/mL | > 50 µg/mL | 5.64 µg/mL | > 50 µg/mL | 0.712 µg/mL | 2.4 µg/mL | > 50 µg/mL | > 50 µg/mL | 0.04 µg/mL | > 50 µg/mL | 0.535 µg/mL | > 50 µg/mL | > 50 µg/mL | > 50 µg/mL | 0.029 µg/mL | > 50 µg/mL | IC50, pseudovirus neutralization [30]: 4.73 µg/mL; IC50, pseudovirus neutralization [31]: > 50 µg/mL
7 | PGT-145 (4995_P16) (antibody) | 0.002 µg/mL | 1.2 µg/mL | 0.915 µg/mL | 0.005 µg/mL | 0.002 µg/mL | > 50 µg/mL | 0.206 µg/mL | 9.66 µg/mL | 0.054 µg/mL | 0.013 µg/mL | > 50 µg/mL | 0.009 µg/mL | 0.018 µg/mL | 0.006 µg/mL | 0.299 µg/mL | > 50 µg/mL | 0.079 µg/mL | > 50 µg/mL | 0.013 µg/mL | > 50 µg/mL | IC50, pseudovirus neutralization [30]: 0.044 µg/mL; IC50, pseudovirus neutralization [31]: > 50 µg/mL
8 | PGV04 (antibody) |  |  |  |  |  |  |  |  |  |  |  |  |  |  |  |  |  |  |  |  | IC50 (µg/mL), pseudovirus neutralization [10]: 0.332 µg/mL; IC50 (µg/mL), pseudovirus neutralization [11]: > 50 µg/mL; IC50 (µg/mL), pseudovirus neutralization [12]: 0.041 µg/mL; IC50 (µg/mL), pseudovirus neutralization [13]: 5.69 µg/mL; IC50 (µg/mL), pseudovirus neutralization [2]: 0.183 µg/mL; IC50 (µg/mL), pseudovirus neutralization [3]: 0.051 µg/mL; IC50 (µg/mL), pseudovirus neutralization [4]: > 50 µg/mL; IC50 (µg/mL), pseudovirus neutralization [22]: 2.52 µg/mL; IC50 (µg/mL), pseudovirus neutralization [32]: 0.027 µg/mL; IC50 (µg/mL), pseudovirus neutralization [23]: 0.028 µg/mL; IC50 (µg/mL), pseudovirus neutralization [24]: 0.454 µg/mL; IC50 (µg/mL), pseudovirus neutralization [25]: 1.9 µg/mL; IC50 (µg/mL), pseudovirus neutralization [26]: 0.11 µg/mL; IC50 (µg/mL), pseudovirus neutralization [28]: > 50 µg/mL; IC50 (µg/mL), pseudovirus neutralization [29]: 0.028 µg/mL; IC50 (µg/mL), pseudovirus neutralization [30]: 0.121 µg/mL; IC50 (µg/mL), pseudovirus neutralization [31]: 0.045 µg/mL
9 | b12 (antibody) |  |  |  |  |  |  |  |  |  |  |  |  |  |  |  |  |  |  |  |  | IC50 (µg/ml), pseudovirus neutralization [27]: 0.02 µg/mL; IC50 (µg/ml), pseudovirus neutralization [33]: > 50 µg/mL
